This experiment has as its target SELL (L-Selectin). In words: ELISA on coated SELL-Fc-His, 150 ng IgG1; None 0.096. For orientation: In an ELISA, binding on a coated surface is turned into a signal by an enzyme label.

Chain of SELL (L-Selectin) (chain, as listed by the source limits assumed): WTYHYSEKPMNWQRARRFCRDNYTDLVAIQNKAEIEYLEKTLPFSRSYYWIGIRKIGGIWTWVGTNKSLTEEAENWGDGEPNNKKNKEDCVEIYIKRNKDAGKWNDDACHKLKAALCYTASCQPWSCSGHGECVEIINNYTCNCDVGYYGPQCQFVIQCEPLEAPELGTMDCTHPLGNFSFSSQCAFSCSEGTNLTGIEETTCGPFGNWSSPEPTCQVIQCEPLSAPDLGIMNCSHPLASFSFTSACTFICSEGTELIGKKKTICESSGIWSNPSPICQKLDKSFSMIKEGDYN

B1: HW-28 chimeric rabbit-human IgG1 LA/LA/PG (antibody, V domains shown)
VH: QKQLVESGGRLVTPGTPLTLTCTASGFSLSSNAMSWVRQAPGEGLQWIGTISSGGSTYYASWAKGRFTISKTSTTVTLKMTSLTTEDTATYFCARGADLHRLWGPGTLVTVSS
VL: SFVLTQPASVQVNLGQTVSLTCTGKPLSRSFASWYQQKPGQAPVLVIYRDTSRPSGVPDRFSGSSSGNTATLTISGAQAGDEADYYCATSDGSGSSYQYVFGGGTQLTVTG
B1 gave an ELISA Absorbance (405 nm-570 nm) of 0.188.

The values above are taken from patent US20260049134A1.
